Literature values, collected in publication PMC3417102.

Columns and labels:
[1] = biological target: tissue-type plasminogen activator (Homo sapiens) (UniProt P00750)
[2] = biological target: plasminogen (Homo sapiens) (UniProt P00747)
[3] = biological target: Glu-plasminogen (Homo sapiens) (UniProt P00747)

UniProt P00750, sequence (P00750 311-562): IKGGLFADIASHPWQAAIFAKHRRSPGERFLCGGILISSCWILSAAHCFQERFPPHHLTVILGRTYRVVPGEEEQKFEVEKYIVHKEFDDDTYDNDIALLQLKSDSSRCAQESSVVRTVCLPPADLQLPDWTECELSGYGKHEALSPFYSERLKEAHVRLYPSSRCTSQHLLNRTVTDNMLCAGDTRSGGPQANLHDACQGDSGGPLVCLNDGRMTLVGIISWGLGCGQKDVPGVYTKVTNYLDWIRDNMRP

Substance	Kd [1] [nM]	Kd [2] [nM]	Kd [3] [nM]
Annexin A2 (from UniProt P07355)	30	114	
beta2-glycoprotein I (nicked) (from UniProt P02749)			370
